Measured values: the DeepSol protein solubility set

Test: soluble on expression in E. coli; label from the status in PepcDB or PDB records

Sequence	soluble on expression in E. coli
MGSDKIHHHHHHMEHGTESFWTDIKRYEDILAKDPGSYCFAPLSELYRKVGLLDDAIMTARTGIGQHPEYVGGYMALGRACFEKGERTESRAALEKVVRVTPDNLLAQKLLSQIYVDAGESDLARRCLEIILSLSPGDLESKLMLDAMCRQPRENADRADDLFNEMGAAAAIDLEDESLLEEIEIIEELVDEVVDEEDLAAFTAHAPPPPLAEESFADVLLDEEPVANADVPSPRDVLSTGTVADLYIAQGFPKKALAIYRDLLDADPLNEDIRNRMVDLKKRIDEDEARARESVLAEAVSATDTTAQIQGDLTADREAFKEEAASGFAVESAHEVDIPLEVAVSAESSLNVAEEKEASAAHVVSALEGWLDSIRRIRQCRSVLH	not soluble
MGSDKIHHHHHHMEIELKTLGNYKAILGESPVYDREGNRLFWVDIDGKKVIVNNLDTNEEKYYDTPDLVTSLCLIDYKRIIVTLRHGFHTLNLTTGEITPYLELENNGENRFNDGKCDIRDRYWAGTMNLHIENPKPTASLYKLEGQRLTKVLDKLYRSNGLGWDPDNKLFYLIDTPLRKVFQFDFDKDKGDIYNKRIVMDFKYEPGRPDGMTIDEEGYLWIAHSAGGKVSRWNPKNGEKVSEIKLPVLYVSSVTFGSPEMNQIFITTMSKGGEPLAGRLFTAKMNIKGLQSYKFLT	not soluble
MGSDKIHHHHHHMEIFGKTFREGRFVLKEKNFTVEFAVEKIHLGWKISGRVKGSPGRLEVLRTKAPEKVLVNNWQSWGPCRVVDAFSFKPPEIDPNWRYTASVVPDVLERNLQSDYFVAEEGKVYGFLSSKIAHPFFAVEDGELVAYLEYFDVEFDDFVPLEPLVVLEDPNTPLLLEKYAELVGMENNARVPKHTPTGWCSWYHYFLDLTWEETLKNLKLAKNFPFEVFQIDDAYEKDIGDWLVTRGDFPSVEEMAKVIAENGFIPGIWTAPFSVSETSDVFNEHPDWVVKENGEPKMAYRNWNKKIYALDLSKDEVLNWLFDLFSSLRKMGYRYFKIDFLFAGAVPGERKKNITPIQAFRKGIETIRKAVGEDSFILGCGSPLLPAVGCVDGMRIGPDTAPFWGEHIEDNGAPAARWALRNAITRYFMHDRFWLNDPDCLILREEKTDLTQKEKELYSYTCGVLDNMIIESDDLSLVRDHGKKVLKETLELLGGRPRVQNIMSEDLRYEIVSSGTLSGNVKIVVDLNSREYHLEKEGKSSLKKRVVKREDGRNFYFYEEGERE	soluble
MGSDKIHHHHHHMEIIAGYRTTSDSRYIALIKADGNNAGKIFGNTVTFSEYVDKSFRLDFGVKKMFYDTLLDIMRASSDESIKKDLVSRILLGVLYLGGDDIMLLSPSAIAVPFAVKMFKRSLEYTGFTFKVGIISVKPDHPVQFAYGAVNALMEESKIHTGEKSSIGVLVFSSTLASEGVVKSDLKNYRKEKESFLVVSNDVDDVERLLNLMELDDFGKLMELYWNPEEGRKVIRDKIRSLERFVNYADTHDFYNTLAYLIRSKAKSEENSLIKRIIDLTIKGRDDFVFPLYDYYFILKSIRVGI	not soluble
MGSDKIHHHHHHMEIKEMVSLARKAQKEYQATHNQEAVDNICRAAAKVIYENAAILAREAVDETGMGVYEHKVAKNQGKSKGVWYNLHNKKSIGILNIDERTGMIEIAKPIGVVGAVTPTTNPIVTPMSNIIFALKTCNAIIIAPHPRSKKCSAHAVRLIKEAIAPFNVPEGMVQIIEEPSIEKTQELMGAVDVVVATGGMGMVKSAYSSGKPSFGVGAGNVQVIVDSNIDFEAAAEKIITGRAFDNGIICSGEQSIIYNEADKEAVFTAFRNHGAYFCDEAEGDRARAAIFENGAIAKDVVGQSVAFIAKKANINIPEGTRILVVEARGVGAEDVICKEKMCPVMCALSYKHFEEGVEIARTNLANEGNGHTCAIHSNNQAHIILAGSELTVSRIVVNAPSATTAGGHIQNGLAVTNTLGCGSWGNNSISENFTYKHLLNISRIAPLNSSIHIPDDKEIWEL	not soluble
MGSDKIHHHHHHMEKMTFGLIVGNREFFPDRLVEEGRERVIKVLEGMGYRVVTLSPSDTKLGAVETAKDAKKCAELFKEKAGEIDGIIVTLPNFGDEKGVAQAIRLSGLNVPVLVHAFPDDPEKLDLQNRRDSFCGKISVSNNLKQYGIEFSLTTLHTEDPESEVFKRDIEKFAAVCRIVKGMRNIKVGAIGARPSAFNTVRFSEKILERMSISVETVDLSEILHRVSNLKDDDERVRRKLEEIKKNYRLQIVPEEKILLMAKFGSVIDEWIEENDIKALAIQCWTSLEWNLGITPCTIMSLLNEKGKPAACEVDITGALSMYVLQLASGQPSAIVDWNNNYRDENETILFHCGNFPASIYEEKPEIKYADVIGTTVGKERAYGACAGKIKTSPFTFLRLTTDDNEGKVKAYVGEGQILDENPKTFGSRGVARIEKLQELMKYICENGFEHHVAINLSRVADAVKEALEKYLGIVVHKHNAEV	not soluble
MGSDKIHHHHHHMEKTAIRIPIFMYSLLTPAWEHKIEAQTDGDPFGDSQPMKEYYGPNGKWLLDGVLRHLNISREDEIAILTTSDERYVSTCVSITCFNYAKISRVVGPNTKVVIVIHEFGYVYPDIKNYVCNLKERGIVVIEDCAHIIGCDINGKKIGSFGDYALFSLPKISPARAGGLLRTTKNIKLPVLNSNLSQLTNIGIAGAEKYLPKYKFFNKGRIERAELLKSQVNDLCNIFEPSHPAVPYFLGIVTSEKSKIETSLPWIEFGATLRNDLVYIPTNPLASINLFELITNTIKNGGKICN	not soluble
MGSDKIHHHHHHMELGTPIAEGNTAKIYLVENRVVKVFKGHLPDTEAANEARKQKYAHSCGLSVPEIFDVTEVNGKQAIMMEYINGKTMGEILFENKEQAEYYMSISVGIQHQIHSKVADSLEPMSEKLSRQIKAAPGLSNNQRSALLKRLETLSIDNRLCHGDFHLYNLIKTNNKVTIIDWVDASVGDMCADICRTYLLYSQFSAELADMYLHLSCKKRGLSQADIFQWAPIIAGARLSETVISEKAERLIEIVKHHFPR	not soluble
MGSDKIHHHHHHMELRVGGAKPSDNSPAASKGFSDPLDSHGVPGRSKQYLIHSAFTGTIGGVAMAYVDWAIKGPKIASCSCDYGCPCEFNGKPTEGLCEGLECMLIEEGWFGDLRLDGLKVAAVYRWPGPVHEGGGVVRGFFDANADQAQIDALFTILGGKEQEPTTVFNIYGSTIAQELEPIFAPIEFHSDIEKRTGGFRIDGHLELELEPIRNPVTGAPHRARIVLPEGFEFRQAEIASGTFNANGEIAMGRQKRYGALWRAAYGPYGIIEE	not soluble
MGSDKIHHHHHHMENIESSFIDLPNPRKDIEDLQPYSAPLEGRRNLLRLDFNENTIGPSPLVIKSLREISRDEISAYPEYSGLKEKVVESLIKKNSNVNINSSEVGIFNGVDAAINAIFHAYGNFDDLMLTTLPTFGYYTPCAQMRGMQIKAIPYEGEGFQYPFDSICEFLTQNNPKILLICNPNNPTGTRLSPERIIEISKLSSKTLVVVDELYEAFTGDSVLPFLNFQTTPNLVVLRSLSKTAGLASLRIGFAIGHSKVINIVNRVTGPYDVNSFAVIAAFAALNDQSYIDSYVQEVLEARNWIKDQFEKHHVKHHIDGGNYFLLWPKSKPQLVEQKLKSSGILIRNMDKKKNLKGSIRVSIGTIDQMKRFWSAFRIVDEV	not soluble
MGSDKIHHHHHHMERHNAIPIYDAELPLTSGVIPLVAGLTMPGCLRDASPDAWGRRVILNKRFGKTALQIDPGSIDELSYLIESGSDRIGALDFQRSPTEYIPRLASGAPLEELIKAAELVEKGVPLTPELAQALQHGTSIGGARPKALVQSDNHKFIAKFSTSTDLYSVVKAEFIAMKLALMAGLHVAPVNLLQVAGKDVLMVERFDRVAAPAGWQRKGIVSALTMLQLDEMMARYASYHDLANLVRQRFMRAPSTLRELFSRLAFNILIGNTDDHARNHAAFWDGRMLQLTPAYDICPQSRTGRTASQAMQISDGQNSSQITTCLKAAPHFLLNEAEAGLIIEGQIRCIEENWPTICEEADLSEIDRNLMWRNQVLNPFAFEGLEGSSLERLAKKYR	not soluble
MGSDKIHHHHHHMETDMPADMIQPLCEIDDLRIGFHGHDGALTEAVRGLSLTLHRGERLGIVGESGSGKSLTGRALLGLLPPAAQYRAKAMTFDGQDLLSMSARKRRQLCGQQMGMILQDPKYSLNPVMTVAQQMREVFDLHGPKLGRREMREQIIAALAAVHIRNPERVADAYPHELSGGMGQRVMIAMMVSSGPRLLVADEPTSALDVLVSMQVLGILDEMIEKHHTGLIFISHDLPLVMSFCDRVVVMFAGRVVETCAARDLVHARHPYTRGLLAASPPLIDPPDQLPVLKPDPAWLTQPAGASA	not soluble
MGSDKIHHHHHHMETDRLIIMDKLRAMRMFVRVVDAGSFSRVANELNVTTSMISKEIGRLEEDLGVRLLHRSTRGQQLTSIGEGYLKRCRELLVQVDDADAYVQHMQENPRGKLRINAPMALGITDLSQLFSAYMKQYPDVELDIQLGDESLDLIEHGFDLGFRASSQMLDSNYVGKPLVSFTYKVCASASYLESHPPIREVEDLAAHNCFVYSYFKSGNFWPLAQGITVAGSLKVNSTLFMKQVIEDGLGIGFLPSFVAREGIEQGKLVEVLPEVGRPDLTLYALYPNRLFTPPKLLSCIEFLQSWFLSRNLDEGWLQ	not soluble
MGSDKIHHHHHHMETLYLKTLIVTAEKGSFSKAAAELCITQSAVSQRVKFLEERYGCELLDRSGPVMMLTAAGEAVVRKAQAILDIEKTLQDELKKFTGRQRLSICCTPSFGIAHMPKVLNRFMLRNADIVDLKFMFYSPEQAVKGLAEREFDIGIIEHCEDLDLADFHTATLPRDELVFVSAPSLGIPTPLVTIERLFEERLITRKDGCSSKKLLRLNLASIGKDLEGFRSTVVYDDLHLTVDTVLDGGGVAFVSSCLVNKYLENGQLKQHRVEGFCHSRQRTVALSRSKVQDRLVSDFLACLDTVFTDQCHRSSCPT	not soluble
MGSDKIHHHHHHMETSAPRAGSQVVATTARHSAAYRADPLRVSSRDKLTEMAASSQGNFEGNFESLDLAEFAKKQPWWRKLFGQESGPSAEKYSVATQLFIGGVTGWCTGFIFQKVGKLAATAVGGGFFLLQLANHTGYIKVDWQRVEKDMKKAKEQLKIRKSNQIPTEVRSKAEEVVSFVKKNVLVTGGFFGGFLLGMAS	not soluble
MGSDKIHHHHHHMEVKELERDKNRVVLEYVFGAEEIAQAEDKAVRYLNQRVEIPGFRKGRIPKNVLKMKLGEEFQEYTLDFLMDLIPDTLKDRKLILSPIVTERELKDVTARVVVEVHEEPEVRIGDISKIEVEKVDEEKVLEKYVERRIEDLRESHALLEPKEGPAEAGDLVRVNMEVYNEEGKKLTSREYEYVISEDEDRPFVKDLVGKKKGDVVEIEREYEGKKYTYKLEVEEVYKRTLPEIGDELAKSVNNEFETLEQLKESLKKEGKEIYDVEMKESMREQLLEKLPEIVEIEISDRTLEILVNEAINRLKREGRYEQIVSSYESEEKFREELKERILDDIKRDRVIEVLAQEKGISVNDEELEKEAEELAPFWGISPDRAKSLVKARQDLREELRWAILKRKVLDLLLQEVKVKVVEPKGEGDDSEGKEDN	not soluble
MGSDKIHHHHHHMFEIKVSQEIKNACPVFAGAAVYAAVKNTAYCDGLWKEINTFTEDLTTTTQMADIKLQPVIAATREAYKRCGKDPGRYRPSAEALRRRLMRGIPLYQIDTLVDLINLVSLRTGHSIGGFDADKIQGNHLELGIGKAEEPFEGIGRGILNIEGLPVYRDSFGGIGTPTSDHERTKMDIGTTHILAIVNGYNGKEGLKEAAEMIQSLLKDYAGSDGGELIYFE	not soluble
MGSDKIHHHHHHMFETITPESIKENILNELALVDVREGSYTNNLVSPTALAIWKLYDSLNALIPMVYVDETSGVYIDKKAAHYGITRKSGTKATAVLHFTGVDGKVVPKGTVFLTGDGLEFVTESAVTITAGAARTTAIAAEAGEAYNVPGGSITQQIVSISGLTGVTNDAAVGGTDPESDKSLVERLYAYLRKPATSGNVYHYEQWALAVDGVGGVKVAPLWNGPGTVKVLIVSPAKAPVDQEVVTRCADHIQQNRPIGAAVTVESASALMINVEATITIESTTTKSAVKEAFANSLNAYLQSIAFEKYELIYNRLAFMLLDIEGVIDYEDLTVNGGTSNITIAANEVPVAGMVVIS	not soluble
